Data: paper PMC3219680 (2011)

T1: Mouse Cerberus 1 homologue (mCer1) recombinant protein (mouse, UniProt O55233 18-272)
T1 chain: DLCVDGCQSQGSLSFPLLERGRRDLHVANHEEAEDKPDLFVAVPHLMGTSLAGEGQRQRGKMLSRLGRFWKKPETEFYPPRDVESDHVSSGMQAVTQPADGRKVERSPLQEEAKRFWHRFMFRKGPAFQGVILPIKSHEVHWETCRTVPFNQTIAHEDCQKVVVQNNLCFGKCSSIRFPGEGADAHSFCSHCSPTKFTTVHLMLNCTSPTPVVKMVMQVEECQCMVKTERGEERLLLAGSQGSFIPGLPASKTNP


Molecular target: T1, Mouse Cerberus 1 homologue (mCer1) …
Assay: SPR

Row | Kd | Binder
1 | 3.38 nM | hBMP2 (ligand) QAKHKQRKRLKSSCKRHPLYVDFSDVGWNDWIVAPPGYHAFYCHGECPFPLADHLNSTNHAIVQTLVNSVNSKIPKACCVPTELSAISMLYLDENEKVVLKNYQDMVVEGCGCR
2 | 23.4 nM | hBMP4 (ligand) SPKHHSQRARKKNKNCRRHSLYVDFSDVGWNDWIVAPPGYQAFYCHGDCPFPLADHLNSTNHAIVQTLVNSVNSSIPKACCVPTELSAISMLYLDEYDKVVLKNYQEMVVEGCGCR
